Experimental data from the nanobody polyreactivity screen of Harvey et al. (2022).

Test: yeast display, Sf9 membrane polyspecificity reagent, FACS + sequencing; frameworks hold sequencing errors
How it was run: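 Nanobodies from a synthetic yeast display library (Saccharomyces cerevisiae BJ5465), induced 36–48 hours with galactose, were stained 1 hour at 4 °C with 10% biotinylated, detergent-solubilized Sf9 membrane reagent, enriched on streptavidin microbeads, then FACS-sorted. Anti-HA (expression) and streptavidin (reagent binding) fluorescence set low and high (top ~1%) gates. Polyreactivity labels come from the gate of origin. Genes were colony-PCR amplified, MiSeq 2 × 250 sequenced and filtered by CDR length.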

Sequence	polyreactivity (PSR sort gate)
QVQLVESGGGLIQAGGSRRLSCAASGIIFYPYTMGWYRQARGKERELVAAIRQSGTSTYYADSVKGRFTISRDNAKNTVYLQMNSLKPEDTAVYYCNADDHIYWRKGYDYWGQGTQVTVSS	low polyreactivity
QLQLVESGGGLVQAGGSLRLSCAASGITFVHNAMGWYRQAPGKEREFVAAITSSGVSTYYADSVKVRFTISRDNAKNTVYLQMNSLKPEDTAVYYCAARLSTRHWFYYWGQGTQVTVSS	high polyreactivity
QVQLVESGLGLLQAGGSLRLSCAASGFIFRLYTMGRYREAPGKVRELVASISSAGSTNYADSVKGRFTISLDNAKNTVYLQMNSLKPDDTAVYDCDKYYGQFYPPTLGYWGQCTQVTVSS	low polyreactivity
QVQLVESGGGLVQAGGSLRLSCAASGSTFDSYAMGWYRQAPGKERELVAAITNGGSTYYADSVKGRFTISRDNAKNTVYLQMNSLKPEDTEVYYCATDDYLLDYLYDYWGQGTQVTVSS	low polyreactivity
QVQLVESGGGLVQAGGSLRLSCAASGFTLFGYAMGWYRPAPGKERELVAAITRSGGSTFYADSVKGRFTISRDNAKNTVYLQMNSLKPEDTAVYYCAAVRSKLYYYWGQGTQVTVSS	high polyreactivity
QVQLVESGGGLVQAGGSLRLSCAASGRTFVGYTMGWYRQAPGKERELVAAIDLSDGSTSYADSVKGRFTISRDNAKNSVYLQMNSLKPEDTAVYYCAKTWANVYAGAHDYWGQGTQVTVSS	low polyreactivity
QVPLVESGGGLVQAGGSLRLSCAASGSIFNIYALGWYRPAPGKVWELVAGISWDSGSTFYADSVKGRVTISRDNAKNTVYLQMNSLKPEDTAGYYCNVVYETYCDEFDYWGQGTQVTVSS	high polyreactivity
QVHLVETGGGLLQAGGSLRLSFAASGFTFWRYAMGWSRQAPGKESELVAAISRTGGRTYYADSLKGRFTISRDHAKNTVYLQMNSLNPEDTAVYYCNAPRGYSSTRNGYWGQGTQVTVSS	high polyreactivity
QVQLVESGGGLVQAGGSLRLSCAASGITFNYYTMVWYRQAPGKERELVARITISGGSTYYADSVKGRFTISRDNAKNTVDFQMYSLKPEDTAVYYCNVRLYGYRHDYWGQGTQVTVSS	high polyreactivity
QVQLVESGGGLVQAGGSLRLSCAASGSIFGFYAMGWYRQAPGKERELVAAITSGDSTHYADSVKGRFTISRDNAKNTVYLQMNSLKPEDTAVYYCAASAPYRYYRSAYYYWGQGTQVTVSS	low polyreactivity
QVQLVESGGGLVQAGGSLRISCAASGRIFDYNVMGWYRQAPGKERELVAGISSGGSTYYADSVKGRFTISRDNAKNTVYLQMNSLKPEDTAVYYCAARGRPYRGYGYWGQGTQVTVSS	high polyreactivity
QVQLVESGGGLVQAGGSLLLSCAASGSIFYNYAMGWYRQAPGKERELVAAISQSGGSTRYADSVKGRFTISRDNAKNTVYLQMNSLKPEDTAVYYCAASRRKGQGSAGFGYWGQGTQVTVSS	high polyreactivity
QVQLVESGGGLVQAGGSLRLSCAASGSIFARYAMGWYRQAPGKERELVAAITSGGITNYADSVKGRFTISRDNAKNTVYLQKNSLKPEDTAVYYCAARRSGRVRYDYWGQGTQVTVSS	high polyreactivity
QVQHVESGGGLVQAGGSLRLSCAASGFTFGSYAMGWYRQAPGKERELVARISSDGSTNYADSVKGRFTISRDNPKNTVYLQMNSLKPEDTAVYYCAADRVVEYADYYYWGQGTQVTVSS	low polyreactivity
QVQLVESGGGLVQAGGSLRLSCAASGRIFHLYAMGWYRQAPGKERELVATITYDGGSTYYADSVKGRFTISRDNAKDTVYLQMNSLKPEDTAVYYCASPSPHVGLKWEYDYWGQGTQVTVSS	low polyreactivity
QVQLVESGGGLVQAGGSLRLSCAPSGRIIFYNAMGWYRQAPGKERELVAAISIGGRTYYADSVKGRFTISRDNAKNTVYLQMNSLKPEDTAVYYCAALGYPYLRSGYWGQGTQVTVSS	high polyreactivity
QVQLVESGGGLVQAGGSLRLSCAASGFIFRRYAMGWYRQAPGKERELVAAINYSGGSTYYADSVKGRFTISRDNAKNTVSLQMNSLKPEDTSVYYCNAFGLRYYEYDYWGQGTQVTVSS	low polyreactivity
QVQLVESGGGLVQAGGSLRLSCAASGSTFPSNAMGWYRQAPGKERELVAAISSGGRTYYADSVKGRFTISRDNAKNTVYLQMNSLKPEDTAVYYCAADTDRRSPFDYWGQGTQVTVSS	high polyreactivity
QVQLVESGGGLVQAGGSLRLSCAASGITFRYYTMGWYRQAPGKERELVAVISWSGGSTYYADSVKGRFTISRDNAKNTVYLQMNSLKPEDTAVYYCAAVRRISRYDYWGQGTQVTVSS	high polyreactivity
QLQLVESGGGLVQAGGSLRLSSAASGITLYQYAMGWYRQSPGKERELVAAISSSGGSTYYADSVKGRFTISRDNAKNTVYLQMNSLKPEETAVYYCAAADRFWYGYYQYDYWGQGTQVTVSS	high polyreactivity
QDQLVESGGGLVQAGGSLRLICAASGRTFYPYVMGWYRQAPGKERDLVAAITDSGGNTYYADSVKGRFTISRDNAKNTVYLQMNSLKPEDTAVYYCNARFYYPSRRGTFQYNYWGQGTQVTVSS	low polyreactivity
QVQHVESGGGLVQAGGSLRLSCAASGIIFYSYTMGWYRQAPGKDRELVAAISRNGGGTYYADSVKGRFTSSRDIAKNTGYLQMNSLKPEHTAVYYCAAGWRFGRYSGDYWGQGTQVTVSS	high polyreactivity

Sequence	polyreactivity (PSR sort gate)
QVQLVESGGGVVQAGGSLRLSCAASGITFTVNAIGWYRQAPGKDREFFAAITYSGGNTYYADSVKGRFTISRDNAKNTVYLQMNSLTPEDTAVYYCNSDSAVGIVGARFFYDYWGQGTQVTVSS	low polyreactivity
QVQLVESGGGLVQAGGSLRLSCAASGRIFRFYAMGWYRQAPRKERELVAAITSGGSTYYADSVKGRFTISRDNAKNTVYLQMNSLKPEDTAVYYCANYYWGQGTQVTVSS	low polyreactivity
QVQLVESGGGLVQAGGSLRLSCAASGIFGWYAMGWYRQARGKEREFVATINWSGGRTYYADSVKGRFTISRDNAKNTVYVQMNSLKPEDTAVYYCAPENYASQYDYWGQGTQVTVSS	low polyreactivity
QVQLVESGGGLVQAGGSLRLSCAASGSIFRRNAMGWYRQAPGKERELVAAISIRGGSTYYADSVKGRFTISRDNAKNTVYLQMNSLKPEDTAVYYCNAKFRKADYDYWGQGTQVTVSS	high polyreactivity
QDQLVESGGGLVQAGGSLRLSCAASGRTFWVYAMGWYRQAPGKERELVAAIRRGGITNYADSVKGRFTISRDNAKNTVYLQMNSLKPEDTAVYYCATDNYGYLTRYYYWGQGTQVTVSS	low polyreactivity
QVQLVESGRGLVQAGGSLRLSCAASGSTFLYYAMGWSRQAPGKEMELVAVISWSGVSTYYADSVKGRFTISRDNAKTTVYLQMNSLKPEDTAVYYCAAVPVHTGSLYWGFTTGYDYWGQGTQVTVSS	low polyreactivity
QVQLVESGGGLVQAGGSLRLTCAASGYIFNRNAMGWYRQAPGKERELVAAISGSGAVTYYADSVKGRFTISRDNAKNTVYFQMNSLKPEDTAVYYCAKKLYWREGRYDYWGQGTQVTVSS	high polyreactivity
QVQLVESGGGLVQAGGSLRLSCAASGSIIKRNDMGWYRQAPGKERELVASITWRGGRTYYADSVKGRFTISRDNAKNTVYLQMNSLTPEDTSVYYCATTQYPSHYDAYGYWGQGTQVTVSS	high polyreactivity
QVQLVESGGGLVQAGGSLRLSCAASGSIFNPYDMGWYRQAPGKERELVAAIDWSGGSTYYADSVKGRFTISRDNAKNTVYLQMNSLKPEDTAVYYCNAESYQDTLFGADNDYDYWGQGTLVTVSS	low polyreactivity
QVQLVESGGGLVQAGGSLRLSCAASGRTFRPYALGGYRPAPGKERELVAVITSGGSTYYADSVKGRFTISRDNAKNTVYLQMNSLKPEDTAVYYCARVYRSYAWSGYDYWGQGTQVTVSS	high polyreactivity
QVQLVESGGGLVQAGGSLRLSCAASGLIFNWNDMGWYRQAPGKERELVAAISGDGGITYYADSVKGRFTISRDNAKNTVYLQMNSLKPEDTAVYYCNAGFTWGDWYDYWGQGTQVTVSS	low polyreactivity
QVQLVESGGGLVQAGGSLRLSCAASGITFYLYDMGWYRQAPGIERELVASITSDGSTDYADSVKGRFTISRDNAKNTVYLQMNSLKPEDTAVYYCNARVTYSWYRFGRSGDDSWGHGTQVTVSS	low polyreactivity
QVQLVESGGGLVQAGGSLRLTCAASGSIFEPYTKGWYRQAPAKERELVAAITGSGGSTFYADSVKARFTISRDNAKNTVYLQMNSLKPEDTAVYYCNANAYPYTDVDYWGQGTQVTVSS	low polyreactivity
QVQLVESGGGLVHAGGTLSLSCADSGFTYVLYGMGWYRQEPGKESELVASITWNGVGTYYADSVKGRFTIARDNAKNTVYLHMNSLKPEDTSVYFCHADDPDLASYLGVDYWGQGSQVTVSS	high polyreactivity
QVQLVESGGGLVQAGGSLRLSCAASGRTFIANAMGWYRQAPGKERELVAVITLNGGSTYYADSVKGRFTISRDNAKSTVYLQMISLKPEDTAVYYCAAGRYYNLRATHGYWGQGTQVTVSS	low polyreactivity
QVQLVESGGGLVQAGASLRLSCAASGIIYAYNAMGWYRPAPGKERELVATITDSGGSTSYADSVKGRFTISRDNAKNTVYLQMNSLKPEDTAVYYCAVLPVYWYWRNYVYLSGYDYWGQGTQVTVSS	low polyreactivity
QVQLVESGGGLVQAGGSLRLSCAASGRIFSRNAMGSYRQAPGKERELVAAITSGGSTYYADYVKGRFTISSDNAKNTVYLQLNSLKPEDTAVYTVKILRYDYWGQGTQVTVSS	high polyreactivity
QVQLVESGGGLVQAGGSLRLSCAASGRIFTSNAMAWYRQAPGKERELVAAISASGGRTYYADSVKGRFTISRDNAKNTVYLQMNSLKPEDTAVYYCAALSTGRLSDHGYWGQGTQVTVSS	high polyreactivity
QVQLVESGGGLVQAGGSLRLSCAATGGLFNVYVMGWYRQAPGKERELVAAITWRGGSTYYADSVKGRFTISRDNAKNTVYLQMNSLKPEDTAVYYCNADAPFQSSSDGYQVEYWGQGTQVTVSS	low polyreactivity
QVQLVESGGGLVQAGGSLRLSCAASGFTFRAYAMGWYRQAPGKERELVATITRSGGSTFYADSVKGRFTISRDNAKNTVYLQMNSLKPEDTAVYYCAAVYRFPCRYAWYKYDDWGQGTQVTVSS	high polyreactivity
QVQLVESGGGLVQAGGSLRLSCAASGYIFGVYAMGWYRQAPGKERELVAAISYGVGSTYYADSVKVRFTISRDNAKNTVYFQMNSLKPEDTAVYYCAADVFFYVYEAYLLYYWGQGSQVTVSS	low polyreactivity
